From the supplement of paper PMC9170038

Tested on: MS2 coat protein
Test: apparent KD of MS2 coat protein; designed switch direction (-1 OFF switch, 1 ON switch): -1; higher = weaker reporter binding
Summary of the method: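 Stalled E. coli RNA polymerase transcribed designed RNA switches on Illumina chips, which were then titrated with SNAP-549-labelled MS2 coat protein, doubling from 0.7 or 1.5 nM to 3 µM. Steps lasted from 0.8–1.5 h at the lowest concentration to 10–20 min at the highest. The apparent KD is each design's median over clusters of curve-fitted normalised fluorescence.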

[1] = input ligand: microRNA oligo, concentration not stated
[2] = Eterna round: R95, input ligand: microRNA oligo, concentration not stated
[3] = Eterna round: R95, input ligand: FMN 200 uM
[4] = Eterna round: R95, input ligand: none

Sequence | apparent KD of MS2 coat protein (input ligand: FMN 200 uM) | apparent KD of MS2 coat protein (input ligand: none) | further results
AGAGUACUGCGAGGAUAUACAUGAGGAUCACCCAUGUAAUAGUGUGAGGCUUUGCCUCACACAAUGUAGAAGGCGCAGUACUCA [Mat - Exclusion NG 2 - Mod of JL - D6] (Eterna round: R96, puzzle: Exclusion NG 2) | 15.7 nM | 17.8 nM | apparent KD of MS2 coat protein [1]: 9.81 nM
UAAAUCGCAGGAUAUCCAGAGGAGGACAUGAGGAUCACCCAUGUGGAAAGGAAAGGAGGAGGAGAAGGGCGAUUUA [Paired] (Eterna round: R97, puzzle: Exclusion 5) | 84.4 nM | 72.5 nM | 
CGGACCCGAGGAUAUCGUAAACCCGACAUGAGGAUCACCCAUGUCAUCCUCACGGCGCCACGAGAAGGCGGUGUUA [Ansolaedra] (puzzle: Exclusion 5) |  |  | apparent KD of MS2 coat protein [2]: 21.8 nM
GGAUAAAAGUCAGGAUAUACGUAUCACUAACGAGUAGAAGGGACACAUGAGGAUCACCCAUGUGAGUUCUCAAUAAGAAACACG [Prohibition 62 - Jieux - Exclusion NG 1] (Eterna round: R96, puzzle: Exclusion NG 1) | 13.8 nM | 14.9 nM | apparent KD of MS2 coat protein [1]: 12.2 nM
AUAUCAAGCAAGGAUAUGCAAAUGGUUAUUUAUGCAGAAGGUGCAACAUGAGGAUCACCCAUGUUUCUGGGUUU [JR_E6_Sub049] (Eterna round: R96, puzzle: Exclusion 6) | 124 nM | 55.7 nM | apparent KD of MS2 coat protein [1]: 41.7 nM
GCACUGACAGGAUAUACAUGAGGAUCACCCAUGUGACCCUUGGAGUACUCGCGUACUCGUAGAAGGGUCUGUGC [Omei Ex3 Model Bachelor's Dilema v37] (Eterna round: R97, puzzle: Exclusion 3) | 95.8 nM | 35.9 nM | 
ACAAGCUUUUAGAUUUUCAACAUGAGGAUCACCCAUGUUCGUCUUGUGCUCGGGCUUGGGCGGUGUCCGGGUUUGGG [JL TOV1 3.77 sellena mod] (Eterna round: R97, puzzle: Sensor, turn-off variant 1) | 33 nM | 34.7 nM | 
UUCACAUGGACAUGAGAUCACAUGAGGAUCACCCAUGUGAAUAACAAGCUUUUUGCUCGUCUUAUGUCCAAUAAUAA [Stov1/14-C1] (Eterna round: R97, puzzle: Sensor, turn-off variant 1) | 14 nM | 12.8 nM | 
CCACGUCCGUACGUAUACUUGUCUCCUGAAAGAAAGGGCACAUGAGGAUCACCCAUGUUUUUGCUCGUCUUAUGAGC [JR_Sensorv2_tov2_Sub714] (Eterna round: R96, puzzle: Sensor v2, turn-off variant 2) | 20.4 nM | 22.8 nM | apparent KD of MS2 coat protein [1]: 40.9 nM
GAGGACUUAGGAUAUACAUGAGGAUCACCCAUGUCCCUAAGCAUGCGACAGCCCUCGAGUAGAAGGGAGGACCA [Eternabot (Original) Solution 3] (Eterna round: R97, puzzle: Exclusion 3) | 14.8 nM | 14.7 nM | 
CCGCAUGCUGUCAGGAUAUCGUAGAUAAUAAUAUGCGAGAAGGGACAUGAGGAUCACCCAUGUAAGAGGCGGCC [Design for Riboswitch] (puzzle: Brourd's mod of Exclusion 4) |  |  | apparent KD of MS2 coat protein [2]: 24.4 nM
UAAGAAUGCAAGGAUAUGGCUAGGUAAAACAUGUCAGAAGGUGCUACAUGAGGAUCACCCAUGUGUCUCGUGCG [Eternabot (L1) Solution 2] (Eterna round: R97, puzzle: Exclusion 6) | 75.8 nM | 64.3 nM | 
AGUUGGCGAGGAUAUACAUGAGGAUCACCCAUGUGAGAGAAUAAAGUGAGGAAGAAAAGUAGAAGGCGCUGACA [Mat - Exclusion 3 - Mod of Salish D9] (puzzle: Exclusion 3) |  |  | apparent KD of MS2 coat protein [2]: 47.7 nM
ACUUAUUGAGGAUAUACAUAAAUUUACAUGAGGAUCACCCAUGUUCUUCUAUGUAUAUAUGUAGAAGGCAGAAGAA [JL-ex5-4.31 Malcolm mod] (Eterna round: R97, puzzle: Exclusion 5) | 27 nM | 18.5 nM | 
ACAAGCUUGUAAUGAUUGAACAUGAGGAUCACCCAUGUAAAUGGAAGAACCAAUUGGAUAAGAUAAACUCGUCUUAU [JR_STOV1_Sub004] (Eterna round: R97, puzzle: Sensor, turn-off variant 1) | 107 nM | 114 nM | 
UGAGCUUACGUAGGAUAUGAGGAUCACCCAUAGAAGGAUAUCGAAAGAGAAGGUCUGAGGAUUACCCAGAAGGACGUGGGCUCU [pwkr exNG2 2xF5 2xFMN.12] (Eterna round: R96, puzzle: Exclusion NG 2) | 732 nM | 151 nM | apparent KD of MS2 coat protein [1]: 122 nM

Sequence | apparent KD of MS2 coat protein (input ligand: FMN 200 uM) | apparent KD of MS2 coat protein (input ligand: none) | further results
AAAAGGCGUGUGAGGAUAUCCGGAGACGUGAAAAGGGAGAAGGCACAUGAGGAUCACCCAUGUGGAGUGUAAAG [Uscece] (puzzle: Brourd's mod of Exclusion 4) |  |  | apparent KD of MS2 coat protein [3]: 38.2 nM; apparent KD of MS2 coat protein [2]: 18.6 nM; apparent KD of MS2 coat protein [4]: 27.5 nM
CCCUCACAUGAGGAUCACCCAUGUUAGGAUAUCUACCAGGAGCCUAAAAUGGCCCAACGGAGAAGGAACGUGCA [Arbire] (Eterna round: R96, puzzle: Exclusion 1) |  |  | apparent KD of MS2 coat protein [1]: 14.7 nM
AUCUUGUCAGGAUAUCUUACAUAACAAUCGUAGUUACCAUUGGAGAAGGGACAUGAGGAUCACCCAUGUUAGCC [tap-tap-tappy42] (Eterna round: R97, puzzle: Exclusion 4) | 20.8 nM | 19.8 nM | 
CCAGCGUGUGUGAGGAUAUGCUGGUCCUUGGAUCAGCAGAAGGCACAUGAGGAUCACCCAUGUGAGGACGUUGG [JL bmx4 3.32] (puzzle: Brourd's mod of Exclusion 4) |  |  | apparent KD of MS2 coat protein [2]: 19.9 nM
GAGAAACAUGAGGAUCACCCAUGUGAGGAUAUGAGCACGCCGGUGACGGUGAUAAGAAUCAGAAGGCACAAAGG [Mat - Exclusion 1 - JL Mod - D33] (Eterna round: R97, puzzle: Exclusion 1) | 422 nM | 67.6 nM | 
AAAAAACAAGGAUAUACGUAUGAGGAUUGUCUUAAUUUUUGACAUGAGGAUCACCCAUGUAGAAGGUGUUAAAA [JR_Exclusion2_Sub015] (puzzle: Exclusion 2) |  |  | apparent KD of MS2 coat protein [2]: 94.9 nM
AAGGUGGCAGGAUAUACAUGAGGAUCACCCAUGUGAACGUAAGGAGACUCUCUCAAAGGUAGAAGGGUCGGUUC [Eternabot (L2) Solution 1] (Eterna round: R97, puzzle: Exclusion 3) | 56.3 nM | 121 nM | 
AAGAAGCGAGGAUAUACAUGAGGAUCACCCAUGUACCUCAUAAAGAAAAGAAAAGAAAGUAGAAGGCGCAAAAG [Default title] (puzzle: Exclusion 3) |  |  | apparent KD of MS2 coat protein [3]: 24.2 nM; apparent KD of MS2 coat protein [2]: 23.1 nM; apparent KD of MS2 coat protein [4]: 18.4 nM
UUUAUAAUAAGAUCAAUUAAUUAACAUGAGGAUCACCCAUGUGAGGAUAUCAGCUCGUGUAGAGCUGAGAAGGCACAAUAUAAG [ExNG3/17-B3] (Eterna round: R96, puzzle: Exclusion NG 3) |  |  | apparent KD of MS2 coat protein [1]: 36.2 nM
AAAAAGGCAGGAUAUACGAGUCAAAGAAAAGACAAAAGGAGACAUGAGGAUCACCCAUGUAGAAGGGCCAAAAA [Fiskers exclusion D2 62% 5] (Eterna round: R96, puzzle: Exclusion 2) | 85.2 nM | 25.3 nM | apparent KD of MS2 coat protein [1]: 20.6 nM
CAGCCUUGAGUUAGGAUAUGCGAUCGUGUAGACGAGCAGAAGGGACAUGAGGAUCACCCAUGUGAAAUAAUUAA [Begeti] (puzzle: Brourd's mod of Exclusion 4) |  |  | apparent KD of MS2 coat protein [3]: 18.3 nM; apparent KD of MS2 coat protein [2]: 13.2 nM; apparent KD of MS2 coat protein [4]: 13.4 nM
GAGUGAUAAGGAUAUACAUGAGGAUCACCCAUGUGCUUCAGCUAGGAGACUAGCAUUGGUAGAAGGUAUUACUC [Mod of lroppy 11 - Jieux - Exclusion 3] (Eterna round: R97, puzzle: Exclusion 3) | 54.3 nM | 18.7 nM | 
CCAGAAUGUGUCAGGAUAUCGGGUACCAAUAGCUUCGAGAAGGGACAUGAGGAUCACCCAUGUUCUCGGAGAGA [Eternabot (L2) Solution 76] (Eterna round: R97, puzzle: Brourd's mod of Exclusion 4) | 20.5 nM | 18 nM | 
AAUUAAUGAGGAUAUACAGUGUAAAACAUGAGGAUCACCCAUGUUCUUCAAUUAGUAUUUGUAGAAGGCAUAGGUA [JR_Ex5_Sub093] (Eterna round: R97, puzzle: Exclusion 5) | 32 nM | 61.4 nM | 
GAGAUGUGAGGAUAUCUAGACCGCGGCAGAGCUGCGGUCCGAGAGAAGGCACAUGAGGAUCACCCAUGUGAUGA [Beriesan] (puzzle: Exclusion 4) |  |  | apparent KD of MS2 coat protein [2]: 47.3 nM
